Data set [1] in a line: gelatin zymography of secreted protein. Conditions: glycan lost; control: wild type.
Data set [2] in a line: APMA or MMP-3 zymogen activation time course, Western. Conditions: glycan lost; control: wild type.
A short description of data set [3]: mCherry fluorescence in media, 32 h time course. Conditions: glycan lost; control: wild type.
A short description of data set [4]: fluorogenic substrate kinetics with TIMP-1 titration. Conditions: glycan lost; control: wild type.
Data set [5] can be described thus: Western blot of culture media, 24 h. Conditions: glycan lost; control: wild type.
Data set [6] can be described thus: Western blot of cell lysate. The conditions noted are these: glycan lost; control: wild type.
A short description of data set [7]: mCherry co-localisation with organelle-targeted eGFP. The conditions noted are these: glycan lost; control: wild type.
A short description of data set [8]: hMMP-9-mCherry fluorescence microscopy. The conditions noted are these: control: untreated.
The nature of data set [9]: mCherry fluorescence in media, 24 h. The conditions noted are these: glycan changed form; control: untreated.
Data set [10] in a line: Western blot of media, transfected HEK293. The conditions noted are these: control: untreated.
Data set [11] in a line: mCherry fluorescence in media, 24 h, N38X series. Conditions: glycan lost; control: wild type.
Data set [12] can be described thus: fluorogenic substrate assay on cell lysate. Conditions: glycan lost; control: wild type.

B1: human matrix metalloproteinase 9 (hMMP-9): mS38 (protein)
parent chain: MSLWQPLVLVLLVLGCCFAAPRQRQSTLVLFPGDLRTNLTDRQLAEEYLYRYGYTRVAEMRGESKSLGPALLLLQKQLSLPETGELDSATLKAMRTPRCGVPDLGRFQTFEGDLKWHHHNITYWIQNYSEDLPRAVIDDAFARAFALWSAVTPLTFTRVYSRDADIVIQFGVAEHGDGYPFDGKDGLLAHAFPPGPGIQGDAHFDDDELWSLGKGVVVPTRFGNADGAACHFPFIFEGRSYSACTTDGRSDGLPWCSTTANYDTDDRFGFCPSERLYTQDGNADGKPCQFPFIFQGQSYSACTTDGRSDGYRWCATTANYDRDKLFGFCPTRADSTVMGGNSAGELCVFPFTFLGKEYSTCTSEGRGDGRLWCATTSNFDSDKKWGFCPDQGYSLFLVAAHEFGHALGLDHSSVPEALMYPMYRFTEGPPLHKDDVNGIRHLYGPRPEPEPRPPTTTTPQPTAPPTVCPTGPPTVHPSERPTAGPTGPPSAGPTGPPTAGPSTATTVPLSPVDDACNVNIFDAIAEIGNQLYLFKDGKYWRFSEGRGSRPQGPFLIADKWPALPRKLDSVFEERLSKKLFFFSGRQVWVYTGASVLGPRRLDKLGLGADVAQVTGALRSGRGKMLLFSGRRLWRFDVKAQMVDPRSASEVDRMFPGVPLDTHDVFQYREKAYFCQDRFYWRVSSRSELNQVDQVGYVTYDILQCPED
As to B1, the enzymatic_activity entry in [1] is recorded as “no change”. Further, the “other: proteolytic processing” value in [2] is “no change”. Further, the “expression_or_secretion, fold_change” value in data set [3] was “no change”. Moreover, the “other: inhibition by TIMP-1” value in [4] was “no change”. In addition, the expression_or_secretion entry in data set [5] and in data set [6] was “no change” each time. In data set [7], the localisation_or_trafficking result is “no change”.

B2: human matrix metalloproteinase 9 (hMMP-9): CST (1 mM) (protein)
parent chain: B1 parent chain
On to B2, for which the localisation_or_trafficking result in [8] (glycan changed form) is “changes”. In data set [9], the expression_or_secretion entry is given as “decreases”.

B3: human matrix metalloproteinase 9 (hMMP-9): castanospermine (CST) (protein)
parent chain: B1 parent chain
With B3, in [10] (glycan changed form), the expression_or_secretion entry is listed as “decreases”.

B4: human matrix metalloproteinase 9 (hMMP-9): tunicamycin (250 ng/ml) (protein)
parent chain: B1 parent chain
As to B4, the localisation_or_trafficking result in [8] (glycan lost) is “changes”.

B5: human matrix metalloproteinase 9 (hMMP-9): N38G (protein)
parent chain: B1 parent chain
For the protein B5, the expression_or_secretion entry in data set [11] is “no change”.

B6: human matrix metalloproteinase 9 (hMMP-9): N38E (protein)
parent chain: B1 parent chain
In the case of B6, the expression_or_secretion result in data set [11] was “no change”.

B7: human matrix metalloproteinase 9 (hMMP-9): N38P (protein)
parent chain: B1 parent chain
For B7, the expression_or_secretion result in data set [11] is “no change”.

B8: human matrix metalloproteinase 9 (hMMP-9): N120S (protein)
parent chain: B1 parent chain
For B8, in data set [12], the enzymatic_activity entry was “decreases”. In data set [3], the “expression_or_secretion, fold_change” value is on record as “decreases”. The expression_or_secretion entry in [5] is recorded as “decreases”; in data set [6] it was “no change”. For the same protein, the localisation_or_trafficking entry in [7] is listed as “changes”.

B9: human matrix metalloproteinase 9 (hMMP-9): tunicamycin (protein)
parent chain: B1 parent chain
B9: in data set [10] (glycan lost), the expression_or_secretion result was “decreases”.

B10: human matrix metalloproteinase 9 (hMMP-9): mS38/ N120S (protein)
parent chain: B1 parent chain
B10: the enzymatic_activity entry in [12] is “decreases”. Further, the “expression_or_secretion, fold_change” value in data set [3] was “decreases”. Also, the expression_or_secretion entry in data set [5] was “abolishes”; in data set [6], “no change”. Further, in data set [7], the localisation_or_trafficking result is “changes”.

The values are drawn from publication PMC4774645.
